Reference: article PMC11194070, “Despite the odds: formation of the SARS-CoV-2 methylation complex” (Nucleic Acids Research, 2024)

Molecular target: T1, nsp10/16 complex (heterodimer of SARS-CoV-2 nsp10 and nsp16) (SARS-CoV-2, UniProt P0DTD1)
T1 construct: also called nsp10/nsp16; nsp10/16 heterodimer
Test: MST
Details: both partners purified

B1: nsp14ExoN, nsp14 without the methyltransferase domain but retaining the exonuclease activity (domain or fragment)
chain: AENVTGLFKDCSKVITGLHPTQAPTHLSVDTKFKTEGLCVDIPGIPKDMTYRRLISMMGFKMNYQVNGYPNMFITREEAIRHVRAWIGFDVEGCHATREAVGTNLPLQLGFSTGVNLVAVPTGYVDTPNNTDFSRVSAKPPPGDQFKHLIPLMYKGLPWNVVRIKIVQMLSDTLKNLSDRVVFVLWAHGFELTSMKYFVKIGPERTCCLCDRRATCFSTASDTYACWHHSIGFDYVYNPFMIDVQQWGFTGNLQSNHDLYCQVHGNAHVASCDAIMTRCLAVHECFVKRVDWTIE
Work on B1 yielded a Kd of 110 ± 130 nM.
